Assays:
[1] = target: HLA-A*01:01; assay: IEDB peptide-MHC binding, purified MHC/direct/fluorescence; filed as Kd, often an IC50 or EC50 that approximates it; ≥ and ≤ were set here for values at or beyond the usual limits of such assays; conditions: source organism: Clostridium botulinum
[2] = target: HLA-A*02:01; assay: as above; conditions: source organism: Clostridium botulinum
[3] = target: HLA-A*02:03; assay: as above; conditions: source organism: Clostridium botulinum NCTC 2916
[4] = target: HLA-A*02:06; assay: as above; conditions: source organism: Clostridium botulinum NCTC 2916
[5] = target: HLA-A*02:11; assay: as above; conditions: source organism: Clostridium botulinum NCTC 2916
[6] = target: HLA-A*02:12; assay: as above; conditions: source organism: Clostridium botulinum NCTC 2916
[7] = target: HLA-A*02:19; assay: as above; conditions: source organism: Clostridium botulinum NCTC 2916
[8] = target: HLA-A*03:01; assay: as above; conditions: source organism: Clostridium botulinum
[9] = target: HLA-A*11:01; assay: as above; conditions: source organism: Clostridium botulinum
[10] = target: HLA-A*24:02; assay: as above; conditions: source organism: Clostridium botulinum
[11] = target: HLA-A*31:01; assay: as above; conditions: source organism: Clostridium botulinum
[12] = target: HLA-A*69:01; assay: as above; conditions: source organism: Clostridium botulinum
[13] = target: HLA-B*07:02; assay: as above; conditions: source organism: Clostridium botulinum
[14] = target: HLA-B*08:01; assay: as above; conditions: source organism: Clostridium botulinum NCTC 2916
[15] = target: HLA-B*08:02; assay: as above; conditions: source organism: Clostridium botulinum NCTC 2916
[16] = target: HLA-B*15:01; assay: as above; conditions: source organism: Clostridium botulinum
[17] = target: HLA-B*15:09; assay: as above; conditions: source organism: Clostridium botulinum NCTC 2916
[18] = target: HLA-B*18:01; assay: as above; conditions: source organism: Clostridium botulinum
[19] = target: HLA-B*27:05; assay: as above; conditions: source organism: Clostridium botulinum
[20] = target: HLA-B*40:01; assay: as above; conditions: source organism: Clostridium botulinum
[21] = target: HLA-B*44:02; assay: as above; conditions: source organism: Clostridium botulinum
[22] = target: HLA-B*46:01; assay: as above; conditions: source organism: Clostridium botulinum
[23] = target: HLA-B*58:01; assay: as above; conditions: source organism: Clostridium botulinum
[24] = target: HLA-A*31:01; assay: IEDB peptide-MHC binding, purified MHC/competitive/fluorescence; ≥ and ≤ were set here for values at or beyond the usual limits of such assays; conditions: source organism: Homo sapiens

RVYINVVVK
Kd [1]: ≥ 20000 nM
Kd [2]: 982 nM
Kd [3]: 599 nM
Kd [4]: 263 nM
Kd [5]: 603 nM
Kd [6]: 697 nM
Kd [7]: 2140 nM
Kd [8]: 241 nM
Kd [9]: 484 nM
Kd [10]: ≥ 20000 nM
Kd [11]: 231 nM
Kd [12]: ≥ 20000 nM
Kd [13]: ≥ 20000 nM
Kd [14]: ≥ 20000 nM
Kd [15]: ≥ 20000 nM
Kd [16]: ≥ 20000 nM
Kd [17]: ≥ 20000 nM
Kd [18]: ≥ 20000 nM
Kd [19]: ≥ 20000 nM
Kd [20]: ≥ 20000 nM
Kd [21]: ≥ 20000 nM
Kd [22]: ≥ 20000 nM
Kd [23]: ≥ 20000 nM

VTMGTGTFGR
IC50 [24]: 357 nM

— the Immune Epitope Database (IEDB)
